Tests used:
[1] = target: haptoglobin β chain derived from benign disease (serum of patients with benign prostatic disease) (human) (UniProt P00738); assay: serum Western blot, Scion image densitometry; mean of 43 patients with benign prostatic disease
[2] = target: haptoglobin β chain derived from cancer (serum or cells of cancer patients) (human) (UniProt P00738); assay: serum Western blot; urothelial cancer, muscle invasive or advanced (n=19)
[3] = target: haptoglobin β chain derived from cancer (serum or cells of cancer patients) (human) (UniProt P00738); assay: serum Western blot; the same 15 patients after radical prostatectomy
[4] = target: haptoglobin β chain derived from cancer (serum or cells of cancer patients) (human) (UniProt P00738); assay: sandwich ELISA: RM2 captured on anti-mouse IgM plate, diluted serum, detection with rabbit anti-haptoglobin polyclonal; mean of 12 sera of prostate cancer
[5] = target: haptoglobin β chain derived from benign disease (serum of patients with benign prostatic disease) (human) (UniProt P00738); assay: sandwich ELISA: RM2 captured on anti-mouse IgM plate, diluted serum, detection with rabbit anti-haptoglobin polyclonal; mean of 12 sera of benign prostatic disease
[6] = target: haptoglobin β chain derived from cancer (serum or cells of cancer patients) (human) (UniProt P00738); assay: serum Western blot, Scion image densitometry; mean of 62 patients with early prostate cancer
[7] = target: haptoglobin β chain derived from cancer (serum or cells of cancer patients) (human) (UniProt P00738); assay: serum Western blot; urothelial cancer, superficial (n=18)
[8] = target: haptoglobin β chain derived from cancer (serum or cells of cancer patients) (human) (UniProt P00738); assay: serum Western blot; 15 prostate cancer patients before radical prostatectomy

Work on monoclonal antibody RM2 yielded an RM2 reaction level to GPX (normalized to 75 kDa band) (ratio of band density to the 75 kDa band) [1] of 0.35, an RM2 reaction (the value normalized to RM2 reaction to 75 kDa protein) (ratio of band density to the 75 kDa band) [2] of 0.96 and an RM2 reaction level to GPX (normalized to 75 kDa band) (ratio of band density to the 75 kDa band) [3] of 0.6. It also gave an absorbance at 450 nm (absorbance at 450 nm) [4] of 1.1, an absorbance at 450 nm (absorbance at 450 nm) [5] of 0.58 and an RM2 reaction level to GPX (normalized to 75 kDa band) (ratio of band density to the 75 kDa band) [6] of 0.96. For the same substance, the RM2 reaction (the value normalized to RM2 reaction to 75 kDa protein) (ratio of band density to the 75 kDa band) [7] was 0.31 and the RM2 reaction level to GPX (normalized to 75 kDa band) (ratio of band density to the 75 kDa band) [8] was 0.92.
